Data set [1] deals with T1, HIV-1 reverse transcriptase (HIV-1, UniProt P04585;P04585 P04585:588-1147,P04585:588-1027). Put plainly: filter; HRT buffer, 6 mM MgCl2, 37 C. The following applies: tags: overexpressed in E. coli, purified per Davies et al. 1991, label: 5'-32P.
Data set [2] concerns the target T1, HIV-1 reverse transcriptase. Briefly: inhibition; Ki' for RNA-dependent DNA polymerase activity. The following applies: tags: overexpressed in E. coli, purified per Davies et al. 1991. From the text: (§1) A substrate for the RNA-dependent DNA polymerase activity of HIV-1 RT was assembled by annealing an 18 nucleotide, 5' end-labeled DNA primer to a 30 nucleotide RNA template with a complementary 3' end (see FIG. 10), and purifying the duplex on a 12% non-denaturing acrylamide gel. The primer sequence matched the 3' terminal 18 nucleotides of tRNA^{Lys,3}, responsible for priming minus-strand DNA synthesis of the HIV-1 genome, and the template sequence paralleled the HIV-1 genomic primer binding site and downstream 12 nucleotides. A dilution series of inhibitory ssDNA ligand (to give a final concentration of 0, 1, 3, 9, 27, or 81 nM) was denatured in HRT Buffer at 70° C. for 5 minutes and allowed to renature slowly at 20° C. The primer:template substrate was added to a final concentration of 40 nM, along with dNTP's at 400 µM. The 10 µl reaction was initiated with the addition of either HIV-1, AMV, or MMLV-RT (to give a final concentration of 10 nM), allowed to proceed for 5 minutes at 37° C., and terminated with one volume of formamide. Extension products were separated on an 8% denaturing acrylamide gel and quantitated with an Ambis radioanalytic imager.
The ability of each of the 8 isolates to inhibit the RNA-dependent DNA polymerase activity of HIV-1 RT was assayed by measuring the decrease in extension product formation from a primer:template substrate as a function of inhibitor concentration (FIGS. 10A–10E). The substrate for the inhibition assay was a DNA:RNA heteroduplex consisting of an 18 nucleotide end-labeled DNA primer identical in sequence to the 3' end of tRNA^{Lys,3} annealed to a 30 nucleotide RNA template whose sequence matches the genomic primer binding site and the first twelve transcribed nucleotides. Extension reactions were performed as described in Example 1 in the presence of 0, 81, 27, 9, 3, and 1 nM inhibitor as indicated in FIG. 10.

The target is the same in data set [3]. Put plainly: inhibition; Ki' for RNA-dependent DNA polymerase activity; 37 C, 40 nM primer:template. To be noted: tags: overexpressed in E. coli, purified per Davies et al. 1991; label: 5'-32P; long interrupted helix with AA/CG internal loop.
Excerpt: as §1, with “imager. […]” for “imager.”

The target is the same in data set [4]. Put plainly: filter; HRT buffer, 37 C. To be noted: tags: overexpressed in E. coli, purified per Davies et al. 1991; pseudoknot.
Data set [5] has the same target. Briefly: competition; Kc for displacement of RT1. The following applies: tags: overexpressed in E. coli, purified per Davies et al. 1991; pseudoknot. On the procedure:
To test this, we measured the ability of the ssDNA ligand RT1 (SEQ ID NO:71) to maintain its specific binding contacts with HIV-1 RT in the presence of high concentrations of RNA pseudoknot (see FIG. 8). […] The percent of RT1 bound in the presence of competitor relative the percent bound in the absence of competitor is plotted as a function of RNA pk concentration. […] As shown graphically in FIG. 14, when a stoichiometric equivalent of RNA pk was added, approximately one half of the complexed RT1 was displaced, and nearly all was displaced when a large excess of RNA was added. […] However, with this assay we are unable to distinguish between an interaction of both ligands at a common site or an interaction of each at different sites, with a conformational change upon binding the first that prevents subsequent binding of the second.

The target is the same in data set [6]. Briefly: filter; nearly as high as full-length RT1. The following applies: tags: overexpressed in E. coli, purified per Davies et al. 1991.

B1: RT26 (ssDNA)
DNA: ATCCGCCTGATTAGCGATACTTACGTGAGCGTGCTGTCCCCTAAAGGTGATACGTCACTTGAGCAAAATCACCTGCAGGGG
In data set [1] (intramolecular primer:template junction, AA/CG internal loop), B1 displayed a Kd of roughly 1 nM. For the same molecule, in data set [2] (label: 5'-32P, intramolecular primer:template junction, AA/CG internal loop), the inhibition constant (Ki) stood at 2.7 nM.

B2: RT1 (ssDNA)
DNA: ATCCGCCTGATTAGCGATACTCAGAAGGATAAACTGTCCAGAACTTGGAATATATCACTTGAGCAAAATCACCTGCAGGGG
B2: the Kd in data set [1] (long interrupted helix with AA/CG internal loop) was roughly 1 nM. In addition, in data set [3], the affinity corresponds to a Ki of 0.3 nM.

B3: RT10 (ssDNA)
DNA: ATCCGCCTGATTAGCGATACTTATTTGCCCTTGCAGGCCGCAGGAGTGCTAGCAGTACTTGAGCAAAATCACCTGCAGGGG
On to B3, for which, in data set [2] (label: 5'-32P, intramolecular primer:template junction (3' AGGGG paired with CCCCT)), the Ki was found to be 62 nM.

B4: RT8 (ssDNA)
DNA: ATCCGCCTGATTAGCGATACTAGCCAGTCAAGTTAATGGGTGCCATGCAGAAGCAACTTGAGCAAAATCACCTGCAGGGG
Consider B4, for which, in data set [2] (label: 5'-32P, internal loop CAA opposite TAG), the affinity corresponds to a Ki of 13 nM.

B5: RT6 (ssDNA)
DNA: ATCCGCCTGATTAGCGATACTCAGGCGTTAGGGAAGGGCGTCGAAAGCAGGGTGGGACTTGAGCAAAATCACCTGCAGGGG
With B5, the dissociation constant Kd in data set [1] worked out at 5 nM. Further, affinity in data set [2] (label: 5'-32P) was put at a Ki of 30 nM.

B6: RT36 (ssDNA)
DNA: ATCCGCCTGATTAGCGATACTAAGCTCTTAGTTGATGCGCGGTCAAAATTTAAGCTACTTGAGCAAAATCACCTGCAGGGG
In data set [2] (label: 5'-32P, internal loop AA opposite A), B6 displayed an inhibition constant Ki of 6.5 nM.

For GGUCCGAAGUGCAACGGGAAAAUGCACU (ssRNA) [RNA pseudoknot (RNA pk)], the equilibrium dissociation constant (Kd) in data set [4] is 5 nM. For the same molecule, the inhibition constant Ki in data set [2] (pseudoknot) came to 4.7 nM; in data set [5] it was 3 nM.

B7: RT4 (ssDNA)
DNA: ATCCGCCTGATTAGCGATACTTTAGCAAAGTTGAAGCCGGACTAACAAGCTCTACGACTTGAGCAAAATCACCTGCAGGGG
In data set [2] (label: 5'-32P, internal loop AA opposite AG), B7 returned a Ki of 4.1 nM.

In data set [6], ATCCGCCTGAATAGCGATACTCAGAAGGATAAACTGTCCAGAACTTGGA (ssDNA) [RT1t49] came in with a Kd of 4 nM.

For orientation: Kd means a measure of binding affinity in units of concentration. Read a low Kd as higher affinity. For orientation: Ki means the dissociation constant of the complex between target and ligand, obtained from inhibition or displacement. A lower Ki goes with a stronger hold on the target.

For the origin of these results see patent US5503978, “Method for identification of high affinity DNA ligands of HIV-1 reverse transcriptase” (University Research Corporation).
